Laboratory results published in publication PMC3684052 (Molecular cell, 2013).
No end group written: not given here.

T1: His-ICAP1 (49–200), wild type (human, UniProt O14713 49-200)
T1 sequence (looked up): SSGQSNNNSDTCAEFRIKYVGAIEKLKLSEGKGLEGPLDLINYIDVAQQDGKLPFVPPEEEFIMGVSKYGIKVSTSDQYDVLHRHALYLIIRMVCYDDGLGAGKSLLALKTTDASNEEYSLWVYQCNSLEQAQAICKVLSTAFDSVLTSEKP

T2: His-ICAP1 (49–200) D93A/Q96A (human, UniProt O14713 49-200, D93A | Q96A)
T2 sequence (looked up): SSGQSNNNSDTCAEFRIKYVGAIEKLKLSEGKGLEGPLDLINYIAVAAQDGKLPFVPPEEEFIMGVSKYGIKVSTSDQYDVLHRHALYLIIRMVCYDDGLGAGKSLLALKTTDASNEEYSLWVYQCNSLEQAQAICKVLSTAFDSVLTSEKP

T3: His-ICAP1 (49–200) I89R (human, UniProt O14713 49-200, I89R)
T3 sequence (looked up): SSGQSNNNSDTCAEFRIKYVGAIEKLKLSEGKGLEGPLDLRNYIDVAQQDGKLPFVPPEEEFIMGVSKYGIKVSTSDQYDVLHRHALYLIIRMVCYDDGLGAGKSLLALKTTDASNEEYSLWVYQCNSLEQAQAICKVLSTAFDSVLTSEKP

T4: His-ICAP1 (49–200) L135A/I138A/I139A (human, UniProt O14713 49-200, L135A | I138A | I139A)
T4 sequence (looked up): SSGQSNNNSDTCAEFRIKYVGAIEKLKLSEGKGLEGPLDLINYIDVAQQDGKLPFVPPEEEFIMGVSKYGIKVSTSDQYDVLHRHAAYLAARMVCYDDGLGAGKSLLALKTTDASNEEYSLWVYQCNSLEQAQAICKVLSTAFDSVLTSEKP

T5: His-ICAP1 (49–200) C184D (human, UniProt O14713 49-200, C184D)
T5 sequence (looked up): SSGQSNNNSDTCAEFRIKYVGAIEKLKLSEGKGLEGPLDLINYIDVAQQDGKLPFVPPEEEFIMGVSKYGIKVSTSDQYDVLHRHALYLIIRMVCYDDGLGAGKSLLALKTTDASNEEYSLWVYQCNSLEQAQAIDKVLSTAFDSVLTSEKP


Legend:
Test in all cases: pull-down
[1] = biological target: T1, His-ICAP1 (49–200), wild type
[2] = biological target: T2, His-ICAP1 (49–200) D93A/Q96A
His-ICAP1 (49–200) I89R = biological target: T3, His-ICAP1 (49–200) I89R
[3] = biological target: T4, His-ICAP1 (49–200) L135A/I138A/I139A
His-ICAP1 (49–200) C184D = biological target: T5, His-ICAP1 (49–200) C184D

Binder	binding result [1]	binding result [2]	binding result (His-ICAP1 (49–200) I89R)	binding result [3]	binding result (His-ICAP1 (49–200) C184D)
QSHFIPDLFRPSDLERIKTNVINPAYATE (domain or fragment, human, UniProt O00522 170-198, looked up) [GST-KRIT1 (residues 170–198) A176D/P182D]	binds	–	–	–	–
KLLMIIHDRREFAKFEKEKMNAKWDTGENPIYKSAVTTVVNPKYEGK (domain or fragment, UniProt P05556 752-798, looked up, also: GST fusion) [GST-integrin β1 fusion protein (residues 752 to 798), wild type]	binds	binds	binds	–	–
QSHFIPALFRPSPLERIKTNVINPAYATE (domain or fragment, human, UniProt O00522 170-198, looked up) [GST-KRIT1 (residues 170–198), wild type]	binds	binds	binds	binds	binds
QSHFIPALFRPSPLERIKTNVIAPAAATE (domain or fragment, human, UniProt O00522 170-198, looked up) [GST-KRIT1 (residues 170–198) N192A/Y195A]	binds	–	–	–	–
QSHFIPALFAPSPLEAIKTNVINPAYATE (domain or fragment, human, UniProt O00522 170-198, looked up) [GST-KRIT1 (residues 170–198) R179A/R185A]	binds	–	–	–	–
